From patent US7888068B2, “Cloning of honey bee allergen C” (PLS-Design GmbH, priority 2006, dated 2011)
“Also recorded” adds a separate entry of the source.

B1: Api m 5 (protein)
chain: KSVPRVIDQDLERYEPLEEEDHRGARVPFNLEETYDQSFRANSFNGTWKTDREILYSDNYVGDIRLFDVTTGSGTVLLDSSVTADFDKASVMFSFDNSHVAIGHDYVNGFRYSIHQKCTVYNIKSRTFTDIANGDRIPLFKWSPTRNALIYVHKNDIYYQVFFEGGSDTRRITNTGVPDIVFNGIPDWVYEEEVLGSPVAFWISPDGRHLAFATFNDTNVRDIVISKYGSPGNSRDQYPNEIRIKYPKAGTTNPFVSLSVIDLHDPSSKLIDLPPPVDVVGADNVLYTANWRRDGEIVATWTNRVQNKAQLVLYDTKGNANNIYYEEETEGWLRIQPPLYHDRYVIVAKLQDSGTKAGRFLHATRLEYRNGALVDETDLTPGTCEVISLLLVDHARARLYYLGTELGKPSHKNLYSVQLSGNEPPVCLSCDVLTPEGNRCTYAYAYFSTNGSHYALYCAGPDPVFIAIVNANHRQISIWEENRSLRRKLAARTQPIVKNFNVNANGYTNKVKLYLPPDFDETKKYPLLITVYAGPNTIRITEEATYGFESYIVTNRSVIYGRIDGRGSAYKGSKMLFEIYRRLGTVEIEDQIIITRTLQEKYSWIDSNRTGIWGWSYGGFSAAMVLATDAESVFKCGISVAPVTSWIYYDSLYTERFMGLPTPEDNQSGYNDTDVSRRVEGMRGKKYMLIHGTADDNVHYQQTMMLNKALVNSDIMFQQQTYTDEAHALGNVFPHLYHTTDRFWANCLGYSH
B2: recombinant Api m 5: cloned recombinant Api m 5 expressed from vector pIB/Api5 with melittin signal sequence and His-tag (protein, listed as Apis mellifera)
chain: MEVLVQLALLLVVHGSLVVLVAGKSVPRVIDQDLERYEPLEEEDHRGARVPFNLEETYDQSFRANSFNGTWKTDREILYSDNYVGDIRLFDVTTGSGTVLLDSSVTADFDKASVMFSFDNSHVAIGHDYVNGFRYSIHQKCTVYNIKSRTFTDIANGDRIPLFKWSPTRNALIYVHKNDIYYQVFFEGGSDTRRITNTGVPDIVFNGIPDWVYEEEVLGSPVAFWISPDGRHLAFATFNDTNVRDIVISKYGSPGNSRDQYPNEIRIKYPKAGTTNPFVSLSVIDLHDPSSKLIDLPPPVDVVGADNVLYTANWRRDGEIVATWTNRVQNKAQLVLYDTKGNANNIYYEEETEGWLRIQPPLYHDRYVIVAKLQDSGTKAGRFLHATRLEYRNGALVDETDLTPGTCEVISLLLVDHARARLYYLGTELGKPSHKNLYSVQLSGNEPPVCLSCDVLTPEGNRCTYAYAYFSTNGSHYALYCAGPDPVFIAIVNANHRQISIWEENRSLRRKLAARTQPIVKNFNVNANGYTNKVKLYLPPDFDETKKYPLLITVYAGPNTIRITEEATYGFESYIVTNRSVIYGRIDGRGSAYKGSKMLFEIYRRLGTVEIEDQIIITRTLQEKYSWIDSNRTGIWGWSYGGFSAAMVLATDAESVFKCGISVAPVTSWIYYDSLYTERFMGLPTPEDNQSGYNDTDVSRRVEGMRGKKYMLIHGTADDNVHYQQTMMLNKALVNSDIMFQQQTYTDEAHALGNVFPHLYHTTDRFWANCLGYSH
modifications: His-tag, melittin signal

What was measured:
[1] = test system: bee venom allergic sera; details: two studies (Ref. 10); cited from earlier work
[2] = test system: IgE from pooled serum from honey bee allergic patients; assay: Immunoprinting of enriched Api m 5 with pooled serum from honey bee allergic patients (AlaBLOT, anti-IgE detection); format: binding, human; details: pooled serum from honey bee allergic patients diluted 1:10; anti-IgE alkaline phosphatase conjugate; BSA negative control
Protocol: Detection was performed with anti-IgE alkaline phosphatase conjugate (DPC Alablot system). Lane 1: BSA, negative control; Lane 2: honey bee venom; Lane 3: Enriched Api m 5 fraction; Lane 4: Protein standard (PageRuler™ Prestained Protein Standard, Fermentas GmbH).
Immunoprinting was performed to verify the allergic potential of enriched Api m 5. Two SDS-PAGE gel slabs with each containing samples of bovine serum albumin, honey bee venom and bee venom enriched in Api m 5, were run and eletroblotted onto a nitrocellulose membranes (Protran™, Whatman GmbH, Dassel, Germany). The nitrocellulose membranes were pre-equilibrated in transfer buffer (20 mm CAPS, pH 11, 10% (v/v) methanol). Transfer was done at 50V for 3 hours submersed in blotting buffer in a blotting chamber (model TE22, Amersham Pharmacia, Freiburg, Germany) according to the instructions of the manufacturer. One membrane was subsequently stained with coomassie brilliant blue G250 according to the instructions of the manufacturer. […] Using the AlaBLOT system kit (DPC Biermann GmbH, Bad Nauheim, Germany) blocked sample strips were incubated with pooled serum from honey bee allergic patients diluted 1:10, washed and analyzed for binding of anti-IgE antibodies.

[3] = test system: phospholipase A2 (Api m 1), hyaluronidase (Api m 2), acid phosphatase (Api m 3), and melittin (Api m 4); details: versus Api m 1, Api m 2, Api m 3, Api m 4 and other minor components (Ref. 14); cited from earlier work
[4] = Dipeptidyl peptidase activity assay with Gly-Pro p-nitroanilide substrate; format: biochemical; details: 0.5 mM Gly-Pro-pNA, 25° C., monitored at 405 nm, compared to buffer alone
Protocol: One putative target of the enzyme might be the specific cleavage of the N-terminal peptide of pro-melittin to generate active melittin. The cleavage releases dipeptides with a C-terminal proline. Activity of such dipeptidases can be examined using the substrate Gly-Pro p-nitroanilide hydrochloride (Ref 22). Purified Api m 5 in NTA-binding buffer containing 300 mmol/L was incubated with 0.5 mM glycylpropyl p-nitroanilide (Gly-Pro-pNA, Sigma-Aldrich GmbH, Munich, Germany) as a substrate at 25° C. Released p-nitroaniline was spectrophotometrically monitored at 405 nm (FIG. 10).

Molecule	reaction of bee venom allergic sera [1]	binding of IgE / allergic potential in immunoprinting [2]	cross-reactivity in immunodiffusion [3]	dipeptidyl peptidase activity (release of p-nitroaniline) [4]
B1	virtually all tested bee venom allergic sera have been shown to react	binds to sIgE of honey bee allergic patients; also recorded: exhibited the allergic potential as seen in whole bee venom	noncross-reactive	
B2				Clearly the peptidase activity of recombinant Api m 5 in releasing the chromogenic label from the dipeptide can be seen; also recorded: showed a dipeptidyl peptidase activity
